Source: PMC9398120 (Molecular Cancer Therapeutics, 2021)

Columns and labels:
recombinant CD73 [1] = biological target: T1, recombinant CD73 (Homo sapiens, UniProt P21589); test: AUC
recombinant CD73 [2] = biological target: T1, recombinant CD73

T1 sequence (P21589 27-549): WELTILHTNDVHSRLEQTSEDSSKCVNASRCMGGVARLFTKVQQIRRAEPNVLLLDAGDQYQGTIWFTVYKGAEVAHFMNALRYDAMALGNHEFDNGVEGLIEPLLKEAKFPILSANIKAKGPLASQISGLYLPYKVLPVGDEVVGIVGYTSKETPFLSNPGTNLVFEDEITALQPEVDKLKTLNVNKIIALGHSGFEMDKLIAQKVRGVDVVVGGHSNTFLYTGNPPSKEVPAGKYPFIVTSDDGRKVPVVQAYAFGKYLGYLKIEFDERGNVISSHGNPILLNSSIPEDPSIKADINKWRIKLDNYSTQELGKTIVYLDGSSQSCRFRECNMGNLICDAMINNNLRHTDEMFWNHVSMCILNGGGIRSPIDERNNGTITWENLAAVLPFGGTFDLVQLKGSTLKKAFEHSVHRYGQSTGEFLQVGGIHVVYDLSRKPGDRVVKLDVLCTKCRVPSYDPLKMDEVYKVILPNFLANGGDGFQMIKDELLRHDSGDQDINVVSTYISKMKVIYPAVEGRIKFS

stoichiometry N (recombinant CD73 [1]): 1 mAb19 per CD73 (printed as 2:2) | Kd (recombinant CD73 [2]): 0.074 nM
B1: mAb19 (antibody, V domains shown)
VH: QVQLVQSGAEVKKPGDSVKVSCKASGYTFTTYWMHWVRQAPGQGLEWMGAIYPGLSDTTYNQKFKGKVTMTRDTSTSTVYMKLSSLRSEDTAVYYCARLLDYAMDYWGQGTLVTVSS
VL: DIQMTQSPSSLSASVGDRVTITCRASQDIRSYLNWHQQKPGKAPKLLIWYTSRLHSGVPSRFSGSGSGTDYTLTISSLQPEDFATYFCQQGETLPWTFGQGTKLEIK
